Measurements reported in patent publication US20260184809A1 (Genmab, published 2026).
Substitutions are numbered along the chain they refer to. Where two headings read alike, the source gives them in different places.

Experiments:
[1] = target: T1, human EpCAM, full length, on cells (human, UniProt P16422 24-314); test: flow cytometry on HPAF-II cells, PE anti-human IgG F(ab')2
T1 construct: also called hEpCAM; EpCAM on DiFi, HPAF-II, A549, OV-90-SC12 and MDA-MB-231_hCLDN6_hEpCAM cells
T1 sequence: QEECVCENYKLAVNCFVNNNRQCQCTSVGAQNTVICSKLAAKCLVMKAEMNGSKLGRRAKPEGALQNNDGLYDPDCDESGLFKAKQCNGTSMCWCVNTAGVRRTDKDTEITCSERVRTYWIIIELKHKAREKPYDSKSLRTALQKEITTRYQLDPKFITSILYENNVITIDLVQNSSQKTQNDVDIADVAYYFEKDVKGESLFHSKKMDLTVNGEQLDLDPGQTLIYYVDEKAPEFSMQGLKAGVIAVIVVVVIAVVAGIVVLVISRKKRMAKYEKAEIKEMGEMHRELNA
Method: (§1) Binding to the EpCAM-expressing human tumor cell lines DiFi, HPAF-II and A549 by bivalent EpCAM antibodies or bispecific antibodies carrying one EpCAM-binding arm was analyzed by flow cytometry. […] Next, cells were washed once (A-D) or twice (E) in FACS buffer, re-suspended in 100 μL FACS buffer and analyzed on a BD LSRFortessa FACS (BD Biosciences, USA), Celesta (BD Biosciences, USA) or iQue (Sartorius, Germany). Binding curves were analyzed using non-linear regression (sigmoidal dose-response with variable slope) using GraphPad Prism V7.02 software (GraphPad Software, San Diego, CA, USA).

[2] = target: T1, human EpCAM, full length, on cells; test: flow cytometry on DiFi cells, PE anti-human IgG F(ab')2
Method: as §1

[3] = target: T2, mouse EpCAM, full length, on transfected CHO-S cells (mouse, UniProt Q99JW5 24-315); test: flow cytometry on CHO-S cells transiently transfected with full length mouse EpCAM, PE anti-human IgG F(ab')2
T2 sequence: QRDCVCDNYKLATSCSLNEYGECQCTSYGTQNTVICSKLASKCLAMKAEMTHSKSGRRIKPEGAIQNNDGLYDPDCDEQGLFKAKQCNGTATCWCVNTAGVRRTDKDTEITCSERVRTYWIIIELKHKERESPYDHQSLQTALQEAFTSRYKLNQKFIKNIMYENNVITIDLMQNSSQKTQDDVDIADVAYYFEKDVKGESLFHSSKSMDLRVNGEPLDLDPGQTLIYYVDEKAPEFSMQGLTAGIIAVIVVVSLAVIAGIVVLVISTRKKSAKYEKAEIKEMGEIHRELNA
Method: (§2) Binding of EpCAM antibodies to CHO-S cells transiently transfected with full length human, cynomolgus monkey or mouse EpCAM was analyzed by flow cytometry. […] Cells were washed twice in FACS buffer, re-suspended in 20 μL FACS buffer supplemented with TO-PRO™-3 Iodide (diluted 1:20000; Invitrogen, cat. no. T3605) and analyzed on an iQue screener (Intellicyt Corporation, USA). Binding curves were analyzed by non-linear regression (sigmoidal dose-response with variable slope) using GraphPad Prism V8.4.1 software (GraphPad Software, San Diego, CA, USA).

[4] = target: T1, human EpCAM, full length, on cells; test: flow cytometry on CHO-S cells transiently transfected with full length human EpCAM, PE anti-human IgG F(ab')2
Method: as §2

[5] = target: T1, human EpCAM, full length, on cells; test: flow cytometry on A549 cells, PE anti-human IgG F(ab')2
Method: as §1

[6] = target: T1, human EpCAM, full length, on cells; test: flow cytometry on HPAF-II cells, PE anti-human IgG F(ab')2; remark: listed apart in the source
Method: as §1

[7] = target: T1, human EpCAM, full length, on cells; test: flow cytometry on DiFi cells, PE anti-human IgG F(ab')2; remark: listed apart in the source
Method: as §1

[8] = target: T1, human EpCAM, full length, on cells; test: as above; remark: listed apart in the source
Method: as §1

[9] = target: T1, human EpCAM, full length, on cells; test: flow cytometry on HPAF-II cells, PE anti-human IgG F(ab')2; remark: listed apart in the source
Method: as §1

[10] = target: T1, human EpCAM, full length, on cells; test: as above; remark: listed apart in the source
Method: as §1

[11] = target: T1, human EpCAM, full length, on cells; test: flow cytometry on DiFi cells, PE anti-human IgG F(ab')2; remark: listed apart in the source
Method: as §1

[12] = target: T2, mouse EpCAM, full length, on …; test: flow cytometry on CHO-S cells transiently transfected with full length mouse EpCAM, PE anti-human IgG F(ab')2; remark: listed apart in the source
Method: as §2

[13] = target: T1, human EpCAM, full length, on cells; test: flow cytometry on CHO-S cells transiently transfected with full length human EpCAM, PE anti-human IgG F(ab')2; remark: listed apart in the source
Method: as §2

B1: IgG1-EpCAM-A37-FEAR (antibody)
heavy: not shown
light: EIELTQSPGTLSLSPGERATLSCRASQTISNNYLAWYQQKRGQAPRLLIYAASSRATGIPDRFSGTGSGTDFTLTISRLEPEDFAVYYCAQGELYPRQFGGGTKLEIKRTVAAPSVFIFPPSDEQLKSGTASVVCLLNNFYPREAKVQWKVDNALQSGNSQESVTEQDSKDSTYSLSSTLTLSKADYEKHKVYACEVTHQGLSSPVTKSFNRGEC
- EC50 (read off the curve) [1]: ~0.1 µg/mL
- EC50 (read off the curve) [2]: ~0.5 µg/mL
- EC50 (read off the curve) [3]: ~0.01 µg/mL
- EC50 (read off the curve) [4]: ~0.03 µg/mL
- EC50 (read off the curve) [5]: ~0.2 µg/mL

B2: IgG1-EpCAM-C52-FEAR (antibody, V domains shown)
VH: QVQLVQSGAEVKKPGASVKVSCKASGGTFSSYAISWVRQAPGQGLEWMGGIVPIFGTANYAQKFQGRVTITADESTSTAYMELSSLRSEDTAVYYCARDPFLHYWGQGTLVTVSS
VL: EIELTQSPGTLSLSPGERATLSCRASQSVSSSYLAWYQQKPGQAPRLLIYGASSRATGIPDRFSGSGSGTDFTLTISRLEPEDFAVYYCAQGELYPRQFGGGTKLDIKR
- EC50 (read off the curve) [6]: ~0.07 µg/mL
- EC50 (read off the curve) [7]: ~0.3 µg/mL

B3: IgG1-EpCAM-UBS-54-FEAR (antibody, V domains shown)
VH: B2 VH with A16S, K19R, V52I
VL: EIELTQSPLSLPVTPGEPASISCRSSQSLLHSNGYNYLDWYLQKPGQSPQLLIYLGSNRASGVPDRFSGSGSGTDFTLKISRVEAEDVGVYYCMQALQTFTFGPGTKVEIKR
- EC50 (read off the curve) [8]: ~0.4 µg/mL
- EC50 (read off the curve) [9]: ~0.2 µg/mL
- EC50 (read off the curve) [4]: ~0.04 µg/mL

B4: IgG1-EpCAM-323-A3-FEAR (antibody)
heavy: QIQLVQSGPELKKPGETVKISCKASGYTFTNYGMNWVRQASGEGLKWMGWINTYTGEPTYGEDFKGRFAFSLETSASTAYLQINNLKNEDTATYFCARFGNYVDYWGQGTTLTVSSASTKGPSVFPLAPSSKSTSGGTAALGCLVKDYFPEPVTVSWNSGALTSGVHTFPAVLQSSGLYSLSSVVTVPSSSLGTQTYICNVNHKPSNTKVDKRVEPKSCDKTHTCPPCPAPEFEGGPSVFLFPPKPKDTLMISRTPEVTCVVVAVSHEDPEVKFNWYVDGVEVHNAKTKPREEQYNSTYRVVSVLTVLHQDWLNGKEYKCKVSNKALPAPIEKTISKAKGQPREPQVYTLPPSREEMTKNQVSLTCLVKGFYPSDIAVEWESNGQPENNYKTTPPVLDSDGSFFLYSRLTVDKSRWQQGNVFSCSVMHEALHNHYTQKSLSLSPG
light: DIVMTQAAFSNPVTLGTSASISCRSSKNLLHSNGITYLYWYLQKPGQSPHLLIYQMSNLASGVPDRFSSSGSGTDFTLRISRVEAEDVGVYYCAQNLEIPRTFGGGTKLEIKRTVAAPSVFIFPPSDEQLKSGTASVVCLLNNFYPREAKVQWKVDNALQSGNSQESVTEQDSKDSTYSLSSTLTLSKADYEKHKVYACEVTHQGLSSPVTKSFNRGEC
notes: also called IgG1-323-A3-FEAR
- EC50 (read off the curve) [10]: ~0.02 µg/mL
- EC50 (read off the curve) [11]: ~0.08 µg/mL

B5: bsIgG1-b12-FEAL/EpCAM-323-A3-FEAR (bispecific antibody)
heavy 1: QVQLVQSGAEVKKPGASVKVSCQASGYRFSNFVIHWVRQAPGQRFEWMGWINPYNGNKEFSAKFQDRVTFTADTSANTAYMELRSLRSADTAVYYCARVGPYSWDDSPQDNYYMDVWGKGTTVIVSSASTKGPSVFPLAPSSKSTSGGTAALGCLVKDYFPEPVTVSWNSGALTSGVHTFPAVLQSSGLYSLSSVVTVPSSSLGTQTYICNVNHKPSNTKVDKRVEPKSCDKTHTCPPCPAPEFEGGPSVFLFPPKPKDTLMISRTPEVTCVVVAVSHEDPEVKFNWYVDGVEVHNAKTKPREEQYNSTYRVVSVLTVLHQDWLNGKEYKCKVSNKALPAPIEKTISKAKGQPREPQVYTLPPSREEMTKNQVSLTCLVKGFYPSDIAVEWESNGQPENNYKTTPPVLDSDGSFLLYSKLTVDKSRWQQGNVFSCSVMHEALHNHYTQKSLSLSPG
light 1: EIVLTQSPGTLSLSPGERATFSCRSSHSIRSRRVAWYQHKPGQAPRLVIHGVSNRASGISDRFSGSGSGTDFTLTITRVEPEDFALYYCQVYGASSYTFGQGTKLERKRTVAAPSVFIFPPSDEQLKSGTASVVCLLNNFYPREAKVQWKVDNALQSGNSQESVTEQDSKDSTYSLSSTLTLSKADYEKHKVYACEVTHQGLSSPVTKSFNRGEC
heavy 2: B4 heavy
light 2: B4 light
- EC50 (read off the curve) [12]: ~0.05 µg/mL
- EC50 (read off the curve) [13]: ~0.1 µg/mL
